Article doi:10.1101/2022.02.15.480544 (bioRxiv, 2022)

Biological target: the molecule itself
Experiment: mass photometry

| Protein | stoichiometry N |
| --- | --- |
| Bacillus subtilis RecA, wild type, hexa-histidine fusion (natural protein, B. subtilis, UniProt P16971 11-348, looked up) ALKQIEKQFGKGSIMKLGEKTDTRISTVPSGSLALDTALGIGGYPRGRIIEVYGPESSGKTTVALHAIAEVQQQGGQAAFIDAEHALDPVYAQKLGVNIEELLLSQPDTGEQALEIAEALVRSGAVDIVVVDSVAALVPKAEIEGDMGDSHVGLQARLMSQALRKLSGAINKSKTIAIFINQIREKVGVMFGNPETTPGGRALKFYSSVRLEVRRAEQLKQGNDVMGNKTKIKVVKNKVAPPFRTAEVDIMYGEGISKEGEIIDLGTELDIVQKSGSWYSYEEERLGQGRENAKQFLKENKDIMLMIQEQIREHYGLDNNGVVQQQAEETQEELEFEE | 2 |
| Bacillus subtilis RecA K70A (Walker A mutant, lowered ATP binding), hexa-histidine fusion (natural protein, B. subtilis, UniProt P16971 11-348, looked up) ALKQIEKQFGKGSIMKLGEKTDTRISTVPSGSLALDTALGIGGYPRGRIIEVYGPESSGATTVALHAIAEVQQQGGQAAFIDAEHALDPVYAQKLGVNIEELLLSQPDTGEQALEIAEALVRSGAVDIVVVDSVAALVPKAEIEGDMGDSHVGLQARLMSQALRKLSGAINKSKTIAIFINQIREKVGVMFGNPETTPGGRALKFYSSVRLEVRRAEQLKQGNDVMGNKTKIKVVKNKVAPPFRTAEVDIMYGEGISKEGEIIDLGTELDIVQKSGSWYSYEEERLGQGRENAKQFLKENKDIMLMIQEQIREHYGLDNNGVVQQQAEETQEELEFEE | 2 |
| Bacillus subtilis RecA K70R (Walker A mutant, no ATPase activity), hexa-histidine fusion (natural protein, B. subtilis, UniProt P16971 11-348, looked up) ALKQIEKQFGKGSIMKLGEKTDTRISTVPSGSLALDTALGIGGYPRGRIIEVYGPESSGRTTVALHAIAEVQQQGGQAAFIDAEHALDPVYAQKLGVNIEELLLSQPDTGEQALEIAEALVRSGAVDIVVVDSVAALVPKAEIEGDMGDSHVGLQARLMSQALRKLSGAINKSKTIAIFINQIREKVGVMFGNPETTPGGRALKFYSSVRLEVRRAEQLKQGNDVMGNKTKIKVVKNKVAPPFRTAEVDIMYGEGISKEGEIIDLGTELDIVQKSGSWYSYEEERLGQGRENAKQFLKENKDIMLMIQEQIREHYGLDNNGVVQQQAEETQEELEFEE | 2 |
